Residue numbers refer to the chain shown, from its start. Numbers in names are those of the source. No end group written: not given here. *: point of attachment. Biotin = O=C1N[C@H]2[C@H](CS[C@H]2CCCCC(=O)*)N1
T1: NH2-PGLVKSK(biotin)-COOH peptide (SMILES CC(C)C[C@H](NC(=O)CNC(=O)[C@@H]1CCCN1)C(=O)N[C@H](C(=O)N[C@@H](CCCCN)C(=O)N[C@@H](CO)C(=O)N[C@@H](CCCCNC(=O)CCCC[C@@H]1SC[C@@H]2NC(=O)N[C@@H]21)C(=O)O)C(C)C)
T1 construct: Immobilised on streptavidin biosensors in BLI; in solution in the yeast display sorts; also called Nt-Pro peptide; target peptide
T1 peptide: H-PGLVKSK(Biotin)-OH

T2: PGMVKSK(biotin) peptide (PGXVKSK(biotin), X = Met)
T2 construct: also called Met at P3
T2 peptide: PGMVKSK(Biotin)

T3: PSLVKSK(biotin) peptide (PXLVKSK(biotin), X = Ser)
T3 construct: also called Ser at P2
T3 peptide: PSLVKSK(Biotin)

T4: PGSVKSK(biotin) peptide (PGXVKSK(biotin), X = Ser)
T4 construct: also called Ser at P3
T4 peptide: PGSVKSK(Biotin)

T5: PGFVKSK(biotin) peptide (PGXVKSK(biotin), X = Phe)
T5 construct: also called Phe at P3
T5 peptide: PGFVKSK(Biotin)

T6: PGVVKSK(biotin) peptide (PGXVKSK(biotin), X = Val)
T6 construct: also called Val at P3
T6 peptide: PGVVKSK(Biotin)

T7: PVLVKSK(biotin) peptide (PXLVKSK(biotin), X = Val)
T7 construct: also called Val at P2
T7 peptide: PVLVKSK(Biotin)

T8: PGRVKSK(biotin) peptide (PGXVKSK(biotin), X = Arg)
T8 construct: also called Arg at P3
T8 peptide: PGRVKSK(Biotin)

T9: FGLVKSK(biotin) peptide (XGLVKSK(biotin), X = Phe)
T9 construct: also called Nt-Phe peptide
T9 peptide: FGLVKSK(Biotin)

T10: VGLVKSK(biotin) peptide (XGLVKSK(biotin), X = Val)
T10 construct: also called Nt-Val peptide
T10 peptide: VGLVKSK(Biotin)

T11: MGLVKSK(biotin) peptide (XGLVKSK(biotin), X = Met)
T11 construct: also called Nt-Met peptide
T11 peptide: MGLVKSK(Biotin)

B1: yeast-surface displayed GID4 A252V variant (residues 116-300, HA-tag, (GGGGS)x3 linker, c-Myc-tag) (designed binder)
chain: YPYDVPDYAGGGGSGGGGSGGGGSGVATSLLYSGSKFRGHQKSKGNSYDVEVVLQHVDTGNSYLCGYLKIKGLTEEYPTLTTFFEGEIISKKHPFLTRKWDADEDVDRKHWGKFLAFYQYAKSFNSDDFDYEELKNGDYVFMRWKEQFLVPDHTIKDISGVSFAGFYYICFQKSAASIEGYYYHRSSEWYQSLNLTHVPEHSAPIYEFREQKLISEEDL
notes: also called A252V (Sort 3ii); not shown: yeast-surface display fusion partner encoded by the pCTCON2 plasmid
B2: yeast-surface displayed GID4 S283F variant (residues 116-300, HA-tag, (GGGGS)x3 linker, c-Myc-tag) (designed binder)
chain: B1 chain with V161A, S192F
notes: also called S283F (Sort 3i); not shown: yeast-surface display fusion partner encoded by the pCTCON2 plasmid
B3: yeast-surface displayed GID4 S253T variant (residues 116-300, HA-tag, (GGGGS)x3 linker, c-Myc-tag) (designed binder)
chain: B1 chain with V161A, S162T
notes: also called S253T (Sort 3i); not shown: yeast-surface display fusion partner encoded by the pCTCON2 plasmid
B4: GID4 A252V variant (residues 116-300), purified with N-terminal His-tag (designed binder)
chain: GVATSLLYSGSKFRGHQKSKGNSYDVEVVLQHVDTGNSYLCGYLKIKGLTEEYPTLTTFFEGEIISKKHPFLTRKWDADEDVDRKHWGKFLAFYQYAKSFNSDDFDYEELKNGDYVFMRWKEQFLVPDHTIKDISGVSFAGFYYICFQKSAASIEGYYYHRSSEWYQSLNLTHVPEHSAPIYEFR
notes: not shown: N-terminal six-histidine tag and TEV protease recognition site from the pET21(+) construct
B5: GID4 A252V-S283F double mutant variant (residues 116-300), purified with N-terminal His-tag (designed binder)
chain: B4 chain with S168F
notes: also called A252V-S283F mutant; not shown: N-terminal six-histidine tag and TEV protease recognition site from the pET21(+) construct
B6: GID4 A252V-S253T double mutant variant (residues 116-300), purified with N-terminal His-tag (designed binder)
chain: B4 chain with S138T
notes: also called A252V-S253T mutant; not shown: N-terminal six-histidine tag and TEV protease recognition site from the pET21(+) construct
B7: GID4 A252V-S253T-S283F triple mutant variant (residues 116-300), purified with N-terminal His-tag (designed binder)
chain: B4 chain with S138T, S168F
notes: as for B4
B8: GID4 S283F variant (residues 116-300), purified with N-terminal His-tag (designed binder)
chain: B4 chain with V137A, S168F
notes: as for B4
B9: GID4 S253T variant (residues 116-300), purified with N-terminal His-tag (designed binder)
chain: B4 chain with V137A, S138T
notes: as for B4
B10: wild-type human GID4 fragment (residues 116-300), purified with N-terminal His-tag (other)
chain: B4 chain with V137A
notes: Expressed in E. coli BL21(DE3), nickel-column purified; also called wild-type GID4; native GID4; not shown: N-terminal six-histidine tag and TEV protease recognition site from the pET21(+) construct

Target: T1, NH2-PGLVKSK(biotin)-COOH peptide
Experiment: yeast-surface display, FACS with biotinylated peptide and streptavidin-R-phycoerythrin
Procedure: After expression, aliquots of cells were pelleted at 3000 RPM for 3 min and suspended to 1 mL for sort samples and 100 μL for control samples such that OD₆₀₀=1 in 0.1% BSA in 1× phosphate-buffered saline (PBS, 137 mmol/L NaCl, 2.7 mmol/L KCl, 10 mmol/L sodium phosphate dibasic, 1.8 mmol/L potassium phosphate monobasic, pH 7.4). The samples were prepared with or without 10 μmol/L of NH₂-PGLVKSK(biotin)-COOH peptide, which has biotin attached to the C-terminal lysine residue. Cells were incubated, while rotating with mixing for 90 min at room temperature. Cells were then pelleted at 3600 RPM for 3 min at 4° C. and suspended in 1 mL of 0.1% BSA in PBS with 10 μg/mL of α-c-Myc (9E1) antibody conjugated to Alexa Fluor® 647 and 25 μg/mL of streptavidin conjugated to R-phycoerythrin (FIG. 1c). For control samples, no or single fluorescent probe was included in 100 μL total volume. After incubation in the dark for 40 min on ice, the cells were washed with 0.1% BSA in PBS and kept on ice until running on cell sorter.
Cells were sorted by fluorescence-activated cell sorting (FACS) on Sony SH800 cell sorter with 100 μm chip. Control samples were used to set up compensation and gate for single cells that show binding to both fluorescent probes (Q2 in FIG. 1d). A total of 70345 cells were sorted into two 5 mL FACS tubes with 1 mL of SD-CAA in each and then combined in 14 mL Falcon cell culture tube for growth with additional 2 mL of SD-CAA media and 10 μg/mL of Carb. After ˜36 hrs of growth at 30° C. and 300 RPM, cells were subcultured to expression media and the selecting and sorting repeated, with modification of using 1 μmol/L of the peptide and collecting 10000 cells from gated areas. A third round of expression, selection, and sorting was done using 0.5 μmol/L of the biotinylated peptide. In each round of cell sorting and amplification, ˜10⁷ cells were pelleted and frozen for plasmid extraction.

binding result | Binder
binds | B1
binds | B2
binds | B3

Target: T2, PGMVKSK(biotin) peptide …
Experiment: BLI, biotinylated peptide on streptavidin biosensor
Procedure: (§1) The measurements were analyzed with instrument software Data Analysis HT (Version 12).
(§2) Previous works on GID4, as well as other N-degron proteins reported significant impact of the second position of the peptide (P2) on binding affinity. The impact of the P2 on the top variants were evaluated with BLI assay using PGLVKSK(biotin) and PXLVKSK(biotin) peptides, where X is Arg, Asp, Val, Phe, Ser, Met, or Pro. […] S283F variant and, especially, A252V variant retain higher level of BLI response compared to wild-type when Val or Ser is at P2. S283F variant retains 40% of signal with Ser at P2 and A252V variant retains >65% with Val and Ser. This retention of binding response with Val and Ser at P2, relative to Gly at P2, is maintained with the triple mutant the double mutants, with over 58% of signal retained for these variants when Ser is at P2. The A252V-S283F mutant and the triple mutant retained >55% of signal when Val is at P2.
(§3) Due to the depth of the binding pocket of GID4, the binding is impacted by the identity of residues in the target peptide beyond P2. […] Similar to evaluating the impact of P2, the impact of P3 was evaluated via BLI with PGLVKSK(biotin) peptide and PGXVKSK(biotin) peptides, where X is Arg, Asp, Val, Phe, Ser, Met, or Pro. […] Asp and Pro are particularly not favorable at P3, as almost no BLI signal was measured. The BLI response of variants with the rest of the peptides, however, increased.

% of steady-state BLI response relative to PGLVKSK(biotin) [%] | binding result | Binder
> 60 |  | B4
> 69 |  | B5
> 69 |  | B6
> 69 |  | B7
 | binds | B8
 | binds | B9

Target: T3, PSLVKSK(biotin) peptide …
Experiment: as above
Procedure: as §1, §2, §3

% of steady-state BLI signal retained relative to PGLVKSK(biotin) [%] | Binder
> 65 | B4
> 58 | B5
> 58 | B6
> 58 | B7
40 | B8

Target: T4, PGSVKSK(biotin) peptide …
Experiment: as above
Procedure: as §1, §2, §3

% of binding response relative to PGLVKSK(biotin) [%] | % of steady-state BLI response relative to PGLVKSK(biotin) [%] | Binder
< 31 |  | B4
 | > 51 | B5
 | > 51 | B6
 | > 51 | B7
< 31 |  | B8
< 31 |  | B9

Target: T5, PGFVKSK(biotin) peptide …
Experiment: as above
Procedure: as §1, §2, §3

% of steady-state BLI response relative to PGLVKSK(biotin) [%] | binding result | Binder
> 60 |  | B4
> 69 |  | B5
> 69 |  | B6
> 69 |  | B7
 | binds | B8
 | binds | B9

Target: T6, PGVVKSK(biotin) peptide …
Experiment: as above
Procedure: as §1, §2, §3

% of steady-state BLI response relative to PGLVKSK(biotin) [%] | binding result | Binder
> 50 |  | B10
> 60 |  | B4
> 69 |  | B5
> 69 |  | B6
> 69 |  | B7
 | binds | B8
 | binds | B9

Target: T7, PVLVKSK(biotin) peptide …
Experiment: as above
Procedure: as §1, §2, §3

% of steady-state BLI signal retained relative to PGLVKSK(biotin) [%] | binding result | Binder
> 65 |  | B4
> 55 |  | B5
 | binds | B6
> 55 |  | B7
 | binds | B8

Target: T8, PGRVKSK(biotin) peptide …
Experiment: as above
Procedure: as §1, §2, §3

% of steady-state BLI response relative to PGLVKSK(biotin) [%] | binding result | Binder
> 60 |  | B4
> 69 |  | B5
> 69 |  | B6
> 69 |  | B7
 | binds | B8
 | binds | B9

Target: T9, FGLVKSK(biotin) peptide …
Experiment: BLI, biotinylated peptide on streptavidin biosensor, 10 µmol/L protein
Procedure: (§4) High-throughput kinetic measurements were taken using Octet Red96e system with Octet Streptavidin (SA) Biosensors in 96-well format. The highest concentration of protein was prepared by mixing 25% of the total volume with 0.4% BSA in dialysis buffer (1×PBS) and completing subsequent dilutions with 0.1% BSA in dialysis buffer. The SA biosensors were hydrated for 10 min in the dialysis buffer with 0.1% BSA then loaded with NH₂-XXXVKSK(biotin)-COOH (where X are residues specified in the experiment and figures) by moving the sensors into wells with 10 μmol/L of the biotinylated peptide and incubating for 2 min. Unbound peptide was removed by incubating in the dialysis buffer with 0.1% BSA for 2 min in the next wells. The association of GID4 wild-type and variants were then measured by incubating the biosensors in wells with the proteins for 10 min and then dissociation measured by moving the sensors into new wells with dialysis buffer with 0.1% BSA for another 10 min. All wells contained 200 μL of specified solution. The measurements were analyzed with instrument software Data Analysis HT (Version 12).
(§5) The association and dissociation of the GID4 wild-type and the six variants to the PGLVKSK(biotin) peptide were evaluated using BLI. BLI is an optical technique that can measure interaction between protein in solution ad peptide immobilized on the biosensor tip. […] The S283F variant has an apparent faster dissociation rate compared to the other singe mutation variants. The apparent faster dissociation rate due to S283F mutation is also present in A252V-S283F mutant, when compared to the A252V-S253T mutant. […] The increase in the BLI response and shift in dissociation rate can be beneficial as an Nt-Pro recognizing protein; differences in off-rate can be used as method to distinguish different Nt-amino acids.

binding result | Binder
binds | B4
binds | B5
binds | B6
binds | B7
binds | B8
binds | B9

Target: T10, VGLVKSK(biotin) peptide …
Experiment: as above
Procedure: as §4, §5

binding result | Binder
binds | B4
binds | B5
binds | B6
binds | B7
binds | B8
binds | B9

Target: T1, NH2-PGLVKSK(biotin)-COOH peptide
Experiment: as above
Procedure: as §4, §5

fold steady-state BLI response against wild-type GID4 [fold] | binding result | Binder
1.7 |  | B4
 | binds | B5
 | binds | B6
> 2.3 |  | B7
 | binds | B8
 | binds | B9

Target: T11, MGLVKSK(biotin) peptide …
Experiment: as above
Procedure: as §4, §5

binding result | Binder
binds | B4
binds | B5
binds | B6
binds | B7
binds | B8
binds | B9
